Our source for the Peptide exchange values is patent US10738094B2, “Peptides and combination of peptides for use in immunotherapy against ovarian cancer and other cancers” (immatics biotechnologies GmbH, priority 2015, dated 2020).

The test deals with HLA-A*02:01 (Homo sapiens, UniProt P04439, D140Y/D185E/D98H/E176V/E277Q/G131W/G231S/I119V/I121R/I166T/I218V/L300P/L318F/N151K/N90K/P208A/P217A/Q86G/Q94H/R138H/R169H/T345S). The test can be described thus: MHC binding assay (UV-ligand exchange, beta2m ELISA). The note with it: binding to HLA-A*02:01 ranged by peptide exchange yield (UV-ligand exchange, β2m ELISA). From the text: Candidate peptides for T cell based therapies according to the present invention were further tested for their MHC binding capacity (affinity). The individual peptide-MHC complexes were produced by UV-ligand exchange, where a UV-sensitive peptide is cleaved upon UV-irradiation, and exchanged with the peptide of interest as analyzed. Only peptide candidates that can effectively bind and stabilize the peptide-receptive MHC molecules prevent dissociation of the MHC complexes. To determine the yield of the exchange reaction, an ELISA was performed based on the detection of the light chain (β2m) of stabilized MHC complexes. The assay was performed as generally described in Rodenko et al. (Rodenko et al., 2006).
96 well MAXISorp plates (NUNC) were coated over night with 2 ug/ml streptavidin in PBS at room temperature, washed 4× and blocked for 1 h at 37° C. in 2% BSA containing blocking buffer. […] Peptide-MHC monomers of the UV-exchange reaction were diluted 100 fold in blocking buffer. Samples were incubated for 1 h at 37° C., washed four times, incubated with 2 ug/ml HRP conjugated anti-β2m for 1 h at 37° C., washed again and detected with TMB solution that is stopped with […]. Absorption was measured at 450 nm. Candidate peptides that show a high exchange yield (preferably higher than 50%, most preferred higher than 75%) are generally preferred for a generation and production of antibodies or fragments thereof, and/or T cell receptors or fragments thereof, as they show sufficient avidity to the MHC molecules and prevent dissociation of the MHC complexes.
With “1 (SLMEPPAVLLL; listed as Homo sapiens) [compound 1]”, the Peptide exchange result was ““+++” (≥50 = +++)”. With “4 (GIMEHITKI; listed as Homo sapiens) [compound 4]”, the Peptide exchange entry is on record as ““++++” (≥75% = ++++)”. On to “5 (HLTEVYPEL; listed as Homo sapiens) [compound 5]”, for which the Peptide exchange result was ““+++” (≥50 = +++)”.

As to “6 (VLVSDGVHSV; listed as Homo sapiens) [compound 6]”, the Peptide exchange result is ““+++” (≥50 = +++)”. In the case of “7 (SLVGLLLYL; listed as Homo sapiens) [compound 7]”, the Peptide exchange entry is listed as ““++++” (≥75% = ++++)”. On to “9 (GAAKDLPGV; listed as Homo sapiens) [compound 9]”, for which the Peptide exchange entry was ““++” (≥20% = ++)”. As for “10 (FLATFPLAAV; listed as Homo sapiens) [compound 10]”, the Peptide exchange result is recorded as ““++++” (≥75% = ++++)”. For the substance “12 (SLWPDPMEV; listed as Homo sapiens) [compound 12]”, the Peptide exchange result is given as ““+++” (≥50 = +++)”. In the case of “13 (YLMDESLNL; listed as Homo sapiens) [compound 13]”, the Peptide exchange entry is ““+++” (≥50 = +++)”. “14 (AAYGGLNEKSFV; listed as Homo sapiens) [compound 14]”: the Peptide exchange result is recorded as ““+++” (≥50 = +++)”. On to “15 (VLLTFKIFL; listed as Homo sapiens) [compound 15]”, for which the Peptide exchange entry is on record as ““++” (≥20% = ++)”. For the substance “16 (VLFQGQASL; listed as Homo sapiens) [compound 16]”, the Peptide exchange result is ““+++” (≥50 = +++)”. With “17 (GLLPGDRLVSV; listed as Homo sapiens) [compound 17]”, the Peptide exchange result is ““+++” (≥50 = +++)”. In the case of “18 (YLVAKLVEV; listed as Homo sapiens) [compound 18]”, the Peptide exchange entry was ““++” (≥20% = ++)”. For “19 (FMVDNEAIYDI; listed as Homo sapiens) [compound 19]”, the Peptide exchange result is ““++++” (≥75% = ++++)”. As to “20 (RMIEYFIDV; listed as Homo sapiens) [compound 20]”, the Peptide exchange entry is given as ““+++” (≥50 = +++)”. In the case of “21 (VLDELDMEL; listed as Homo sapiens) [compound 21]”, the Peptide exchange entry is ““++” (≥20% = ++)”. Then “22 (IMEENPGIFAV; listed as Homo sapiens) [compound 22]”, with ““+++” (≥50 = +++)”. As for “23 (VLLDDIFAQL; listed as Homo sapiens) [compound 23]”, the Peptide exchange entry is listed as ““+++” (≥50 = +++)”. “24 (SLSDGLEEV; listed as Homo sapiens) [compound 24]”: the Peptide exchange result is ““++” (≥20% = ++)”. In the case of “25 (FLPDEPYIKV; listed as Homo sapiens) [compound 25]”, the Peptide exchange entry was ““+++” (≥50 = +++)”. Turning to “26 (ALLELAEEL; listed as Homo sapiens) [compound 26]”, the Peptide exchange result is recorded as ““+++” (≥50 = +++)”.

For “27 (ILADIVISA; listed as Homo sapiens) [compound 27]”, the Peptide exchange entry is ““+++” (≥50 = +++)”. For “28 (QLLDETSAITL; listed as Homo sapiens) [compound 28]”, the Peptide exchange result is given as ““+++” (≥50 = +++)”.

With “29 (KMLGIPISNILMV; listed as Homo sapiens) [compound 29]”, the Peptide exchange entry is ““+++” (≥50 = +++)”. For “30 (LILDWVPYI; listed as Homo sapiens) [compound 30]”, the Peptide exchange entry was ““+++” (≥50 = +++)”.

For the substance “31 (YLAPELFVNV; listed as Homo sapiens) [compound 31]”, the Peptide exchange entry was ““++” (≥20% = ++)”.

“32 (KLDDLTQDLTV; listed as Homo sapiens) [compound 32]”: the Peptide exchange entry is recorded as ““++” (≥20% = ++)”. As to “33 (VLLSLLEKV; listed as Homo sapiens) [compound 33]”, the Peptide exchange result is on record as ““++” (≥20% = ++)”.

With “34 (ILVEADSLWVV; listed as Homo sapiens) [compound 34]”, the Peptide exchange entry is reported as ““+++” (≥50 = +++)”. On to “35 (KINDTIYEV; listed as Homo sapiens) [compound 35]”, for which the Peptide exchange entry is reported as ““+++” (≥50 = +++)”. Then “39 (SVAPNLPAV; listed as Homo sapiens) [compound 39]”, with ““+++” (≥50 = +++)”; and “40 (TLLVKVFSV; listed as Homo sapiens) [compound 40]”, with ““+++” (≥50 = +++)”; and “41 (SLMPHIPGL; listed as Homo sapiens) [compound 41]”, with ““+++” (≥50 = +++)”. Then “42 (VLLQKIVSA; listed as Homo sapiens) [compound 42]”, with ““+++” (≥50 = +++)”; and “43 (VLSSLEINI; listed as Homo sapiens) [compound 43]”, with ““++” (≥20% = ++)”.

In the case of “44 (ILDPISSGFLL; listed as Homo sapiens) [compound 44]”, the Peptide exchange entry was ““++” (≥20% = ++)”.

Consider “45 (SLWQDIPDV; listed as Homo sapiens) [compound 45]”, for which the Peptide exchange result is on record as ““+++” (≥50 = +++)”.

Regarding “46 (ILTEENIHL; listed as Homo sapiens) [compound 46]”, the Peptide exchange result was ““+++” (≥50 = +++)”. In the case of “47 (ILLSVPLLVV; listed as Homo sapiens) [compound 47]”, the Peptide exchange entry was ““++” (≥20% = ++)”.

For the substance “49 (YLPAVFEEV; listed as Homo sapiens) [compound 49]”, the Peptide exchange entry was ““+++” (≥50 = +++)”. The entry for “50 (SLSELEALM; listed as Homo sapiens) [compound 50]” is ““+++” (≥50 = +++)”. Take “51 (LLPDLEFYV; listed as Homo sapiens) [compound 51]”: the Peptide exchange result is given as ““++++” (≥75% = ++++)”. For “52 (FLLAHGLGFLL; listed as Homo sapiens) [compound 52]”, the Peptide exchange result was ““++++” (≥75% = ++++)”.

Take “53 (KMIETDILQKV; listed as Homo sapiens) [compound 53]”: the Peptide exchange entry is on record as ““++++” (≥75% = ++++)”. As for “54 (SLLEQGKEPWMV; listed as Homo sapiens) [compound 54]”, the Peptide exchange result is listed as ““+++” (≥50 = +++)”. Consider “55 (SLLDLETLSL; listed as Homo sapiens) [compound 55]”, for which the Peptide exchange entry is ““++++” (≥75% = ++++)”. For “57 (TLAELQPPVQL; listed as Homo sapiens) [compound 57]”, the Peptide exchange entry was ““+++” (≥50 = +++)”. In the case of “59 (IMEDIILTL; listed as Homo sapiens) [compound 59]”, the Peptide exchange entry is ““+++” (≥50 = +++)”. As to “61 (FLQGYQLHL; listed as Homo sapiens) [compound 61]”, the Peptide exchange entry is given as ““++++” (≥75% = ++++)”. In the case of “62 (VLLDVSAGQLLM; listed as Homo sapiens) [compound 62]”, the Peptide exchange result is given as ““++++” (≥75% = ++++)”. On to “63 (YLLPSGGSVTL; listed as Homo sapiens) [compound 63]”, for which the Peptide exchange entry is ““++” (≥20% = ++)”. Consider “64 (YAAPGGLIGV; listed as Homo sapiens) [compound 64]”, for which the Peptide exchange result is recorded as ““++” (≥20% = ++)”. In the case of “66 (FLDENIGGVAV; listed as Homo sapiens) [compound 66]”, the Peptide exchange result is listed as ““+++” (≥50 = +++)”.
